This passage reports stoichiometry N results from article PMC7199903.

For the test, the target named is recombinant soluble SARS-CoV-2 spike (S) glycoprotein, prefusion-stabilised trimer (2P, GSAS, C-terminal trimerization motif) (SARS-CoV-2). Nature of the test: negative-stain EM.

For orientation: stoichiometry N means a count of units in the complex or per binding partner. As for “recombinant soluble SARS-CoV-2 spike (S) glycoprotein, prefusion-stabilised trimer (2P, GSAS, C-terminal trimerization motif) (domain or fragment)”, the stoichiometry N was 3.
